Measured values published in publication PMC11196582 (Scientific Reports, 2024).
Each block holds one binder with its values, some of them ahead of it.

What was measured:
[1] = biological target: T1, Human IL-4Rα overexpressed on HEK293T cells (Homo sapiens (Human)., UniProt P24394); assay: flow cytometry on cells; human IL-4Rα-overexpressing HEK293T cells, 2x10^5 cells/tube in PBS; seven-point curve; Dup-scFv detected with anti-6xHIS antibody and Alexa Fluor-647 anti-mouse IgG, dupilumab with Alexa Fluor-647 anti-human IgG; fitted in GraphPad Prism 8; conditions: one partner purified
T1 construct: IL-4 receptor alpha (IL-4Rα), human, overexpressed on HEK293T cells; also called IL-4Ra; IL-4 receptor alpha; source: HEK293T, lentiviral transduced (IL4R-EGFP), on cells
T1 sequence (P24394 26-825): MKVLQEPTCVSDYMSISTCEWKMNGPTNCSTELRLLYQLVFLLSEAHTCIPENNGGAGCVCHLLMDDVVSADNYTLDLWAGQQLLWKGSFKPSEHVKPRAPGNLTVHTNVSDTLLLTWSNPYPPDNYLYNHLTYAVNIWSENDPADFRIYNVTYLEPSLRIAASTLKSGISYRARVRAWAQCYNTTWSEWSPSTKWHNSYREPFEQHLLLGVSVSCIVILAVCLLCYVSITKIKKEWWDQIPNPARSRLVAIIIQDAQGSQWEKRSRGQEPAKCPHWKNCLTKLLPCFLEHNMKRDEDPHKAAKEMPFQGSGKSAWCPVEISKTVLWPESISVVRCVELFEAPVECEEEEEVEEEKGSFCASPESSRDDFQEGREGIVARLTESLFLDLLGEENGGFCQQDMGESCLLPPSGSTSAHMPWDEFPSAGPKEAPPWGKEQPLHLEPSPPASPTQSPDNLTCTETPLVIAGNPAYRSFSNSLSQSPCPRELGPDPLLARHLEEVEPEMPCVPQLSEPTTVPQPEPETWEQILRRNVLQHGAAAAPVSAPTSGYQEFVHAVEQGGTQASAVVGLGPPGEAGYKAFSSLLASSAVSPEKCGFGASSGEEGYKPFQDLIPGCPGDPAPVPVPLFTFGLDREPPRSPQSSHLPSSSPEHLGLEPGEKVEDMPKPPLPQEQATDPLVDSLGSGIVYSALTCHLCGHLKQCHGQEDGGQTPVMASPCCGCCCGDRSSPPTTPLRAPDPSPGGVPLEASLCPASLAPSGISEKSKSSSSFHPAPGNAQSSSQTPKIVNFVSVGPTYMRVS

[2] = biological target: T2, Biotinylated IL-4Rα (Homo sapiens (assumed), UniProt P24394, biotin); assay: SPR; iMSPR-ProX; biotinylated IL-4Rα immobilised on the sensor chip (A-Dex100) at 169.7 RU; Dup-scFv at 1.56-100 nM; regeneration with 10 mM glycine-HCl pH 1.5; 1:1 kinetic binding model; conditions: both partners purified
T2 construct: IL-4 receptor alpha (IL-4Rα); Probably a soluble extracellular construct of the human receptor (surmised); also called IL-4Ra; immobilized IL-4Rα
T2 sequence (P24394 26-825): as above

[3] = biological target: T1, Human IL-4Rα overexpressed on HEK293T …; assay: cell-based or functional assay

- EC50 [1]: 17.3 nM
- Kd [2]: 0.476 nM
- IL-4-induced CCL26 mRNA (qPCR; more than 3000-fold with IL-4 alone) in HNECs with Dup-scFv 20 μg/ml on the apical side [3]: 1790 fold
B1: Dup-scFv with HDEL (single-chain variable fragment of dupilumab produced by Nicotiana benthamiana) (scFv, V domains shown)
VH: EVQLVESGGGLEQPGGSLRLSCAGSGFTFRDYAMTWVRQAPGKGLEWVSSISGSGGNTYYADSVKGRFTISRDNSKNTLYLQMNSLRAEDTAVYYCAKDRLSITIRPRYYGLDVWGQGTTVTVSS
VL: DIVMTQSPLSLPVTPGEPASISCRSSQSLLYSIGYNYLDWYLQKSGQSPQLLIYLGSNRASGVPDRFSGSGSGTDFTLKISRVEAEDVGFYYCMQALQTPYTFGQGTKLEIK
notes: VH region of dupilumab; linker, printed as (GGGGS)4 / 4 x G4S; VL region of dupilumab; The form without HDEL is GenBank PP711327; also called dupilumab-scFv; source: N. benthamiana leaves, Agrobacterium-mediated transient expression with p19, purified (Ni-NTA); not shown: His6, C-terminal, kept

- EC50 [1]: 1.02 nM
- Kd [2]: 0.133 nM
- IL-4-induced CCL26 mRNA (qPCR; more than 3000-fold with IL-4 alone) in HNECs with dupilumab 100 μg/ml on the apical side [3]: 2200 fold
B2: Dupilumab (antibody, V domains shown)
VH: B1 VH
VL: B1 VL
notes: heavy chain of dupilumab (IgG4); light chain of dupilumab; IgG4 subclass monoclonal antibody (developed by Regeneron/Sanofi)
